Tests used:
Experiment in all cases: cell-based or functional assay
[1] = biological target: RSV B F protein variant I206M:Q209R (RSV B)
[2] = biological target: RSV B F protein variant K65Q:K68N (RSV B)
[3] = biological target: RSV B F protein variant N201T:I206M:Q209R (RSV B)
[4] = biological target: RSV B F protein variant N208S (RSV B)
[5] = biological target: RSV B F protein variant I64T:K68E:I206M:Q209R (RSV B)
[6] = biological target: RSV B F protein variant K68N:N208S (RSV B, strain B9320)
[7] = biological target: RSV B F protein variant K68N (RSV B)
[8] = biological target: RSV B F protein variant N201S (RSV B)
[9] = biological target: RSV B F protein variant K68Q:S211N (RSV B)
[10] = biological target: RSV B F protein variant S211N (RSV B)
[11] = biological target: RSV B F protein variant N208D (RSV B, strain B9320)
[12] = biological target: RSV B F protein variant K68N:N201S (RSV B, strain B9320)
[13] = biological target: RSV B F protein variant L203I (RSV B)
[14] = biological target: RSV B F protein variant I206M:Q209R:S211N (RSV B)
[15] = biological target: RSV B F protein variant K68Q:I206M:Q209R (RSV B)

B1: nirsevimab (antibody, human IgG1, kappa, V domains shown)
VH: QVQLVQSGAEVKKPGSSVMVSCQASGGLLEDYIINWVRQAPGQGPEWMGGIIPVLGTVHYGPKFQGRVTITADESTDTAYMELSSLRSEDTAMYYCATETALVVSETYLPHYFDNWGQGTLVTVSS
VL: DIQMTQSPSSLSAAVGDRVTITCQASQDIVNYLNWYQQKPGKAPKLLIYVASNLETGVPSRFSGSGSGTDFSLTISSLQPEDVATYYCQQYDNLPLTFGGGTKVEIKR
fold change in susceptibility to nirsevimab [1]: 0.23 fold | fold reduced susceptibility to nirsevimab neutralization (recombinant RSV neutralization susceptibility assay) [2]: 1240 fold | fold reduced susceptibility to nirsevimab neutralization (recombinant RSV neutralization susceptibility assay) [3]: > 418 fold | fold reduced susceptibility to nirsevimab (recombinant RSV B variant) [4]: > 24000 fold | fold reduced susceptibility to nirsevimab neutralization (recombinant RSV neutralization susceptibility assay) [4]: > 387 fold | fold reduced susceptibility to nirsevimab neutralization (recombinant RSV neutralization susceptibility assay) [5]: > 447 fold | fold reduced susceptibility to nirsevimab (recombinant RSV B variant) [6]: > 90000 fold | fold reduced susceptibility to nirsevimab neutralization (recombinant RSV neutralization susceptibility assay) [7]: 29.9 fold | fold reduced susceptibility to nirsevimab neutralization (recombinant RSV neutralization susceptibility assay) [8]: 127 fold | fold reduced susceptibility to nirsevimab neutralization (recombinant RSV neutralization susceptibility assay) [9]: 35.7 fold | fold change in susceptibility to nirsevimab [10]: 1.2 fold | fold reduced susceptibility to nirsevimab (recombinant RSV B variant) [11]: > 90000 fold | fold reduced susceptibility to nirsevimab (recombinant RSV B variant) [12]: > 13000 fold | fold reduced susceptibility to nirsevimab neutralization (recombinant RSV neutralization susceptibility assay) [13]: 3000 fold | fold change in susceptibility to nirsevimab [14]: 0.5 fold | fold reduced susceptibility to nirsevimab neutralization (recombinant RSV neutralization susceptibility assay) [15]: 46.4 fold
